Measurements reported in US20220062415A1, “Methods of Treating Multiple Myeloma” (Janssen Biotech, Inc., priority 2018, published 2022).
Like-named read-outs stand apart in the source and are kept apart here.

What was measured:
[1] = mean±SD, cited from earlier work
[2] = cited from earlier work
[3] = Pooled infusion-related reaction analysis, 1,166 subjects treated with daratumumab 16 mg/kg IV; assay type: in vivo, human
[4] = Phase 3 Study: daratumumab serum pharmacokinetics; assay type: in vivo, human; conditions: daratumumab 16 mg/kg in D-VMP
Text: (§1) Clinical pharmacology information provided herein focuses on data from subjects with evaluable pharmacokinetic data treated with D-VMP in the Phase 3 Study (n=342), and supportive information derived from the Phase 1b Study in the cohort of subjects treated with D-VMP having evaluable pharmacokinetic data (n=11). In addition, an updated population pharmacokinetics (PPK) analysis including data from the Phase 3 and Phase 1b Studies and exposure-response (efficacy and safety) analyses including data from Phase 3 Study were conducted.

[5] = in vivo
[6] = in vivo; remark: listed apart in the source
Text: The first subject in this cohort started treatment with D-VMP. Subjects in the D-VMP cohort of the Phase 1b Study received treatment for a maximum of 9 cycles. Long-term follow-up for this cohort continued until death, loss to follow up, withdrawal of consent, or study end, whichever occurred first. The primary objective for the Phase 1b Study was to evaluate safety and tolerability of the combination regimen. Efficacy assessments (primary efficacy endpoint, overall response rate (ORR)) were performed per International Myeloma Working Group (IMWG) guidelines (Kumar S, et al. Lancet Oncol. 2016;17(8):e328-e346, hereby incorporated by reference in its entirety), and a computerized, validated algorithm as described above was utilized for determining response based on IMWG criteria.
as §1

Substance: daratumumab
- half-life ([1]; monotherapy study data): 18 ± 9 days
- half-life ([1]; previous combination therapy study data): 23.3 ± 11.8 days
- mean maximum trough concentration ([2]; after 8 weekly doses, monotherapy): 573.5 µg/mL
- mean end-of-infusion concentration following the first dose ([2]; daratumumab monotherapy, Phase 2 study): 312.5 µg/mL
- increase in daratumumab compared with the first dose ([2]; end of 8 weekly doses of monotherapy): 2.9 fold
- Grade 4 IRRs ([3]; 2 of 1,166 subjects): 0.2%
- incidence of any grade IRR ([3]; first infusion, pooled 1,166 subjects): 40%
- incidence of infusion modification due to IRRs ([3]; pooled): 37%
- incidence of any grade IRR ([3]; second infusion, pooled): 2%
- subjects with a Grade 3 IRR ([3]; second or subsequent infusion, pooled): < 1%
- incidence of any grade IRR ([3]; subsequent infusions, pooled): 4%
- mean end-of-infusion concentration following the first dose [4]: 266.7 µg/mL
- model-derived half-life associated with the CL ([5]; human): approximately 22.1±9.7 days
- estimated Vi value [5]: approached plasma volume
- time to apparent steady state [5]: approximately 5 months
- mean end-of-infusion concentration following the first dose [6]: 332.2 µg/mL
